Laboratory results from paper PMC5159831, “Harnessing the natural inhibitory domain to control TNFα Converting Enzyme (TACE) activity in vivo” (Scientific Reports, 2016).

Tests used:
[1] = target: recombinant TACE catalytic domain; experiment: cell-based or functional assay
[2] = target: the molecule itself; experiment: SDS-PAGE under non-reducing conditions; purified TPD; 40 kDa band = covalent (disulfide-linked) dimer, 20 kDa band = monomer

Chain of recombinant TACE catalytic domain (P78536 215-671): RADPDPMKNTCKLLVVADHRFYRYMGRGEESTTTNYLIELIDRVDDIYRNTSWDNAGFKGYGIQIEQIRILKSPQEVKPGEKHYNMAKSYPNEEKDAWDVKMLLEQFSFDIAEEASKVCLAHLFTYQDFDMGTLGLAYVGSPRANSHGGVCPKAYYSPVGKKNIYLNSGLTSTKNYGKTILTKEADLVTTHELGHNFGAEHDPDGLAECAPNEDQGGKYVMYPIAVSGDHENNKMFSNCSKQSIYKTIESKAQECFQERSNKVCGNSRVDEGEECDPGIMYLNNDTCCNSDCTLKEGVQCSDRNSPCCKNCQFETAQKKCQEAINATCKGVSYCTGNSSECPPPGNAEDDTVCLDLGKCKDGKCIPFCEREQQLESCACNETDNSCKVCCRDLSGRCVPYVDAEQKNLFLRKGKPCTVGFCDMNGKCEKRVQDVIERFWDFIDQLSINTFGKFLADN

Binder | IC50 of inhibition of the enzyme's hydrolysis of a fluorogenic peptide (10 nM TACE, Mca-PLAQAV-Dpa-RSSSR 10 μM, 37 °C, 30 min pre-incubation with TPD) [1] [nM] | stoichiometry N [2] | IC50 of inhibition of the enzyme's hydrolysis of a fluorogenic peptide (10 nM TACE, 37 °C) [1] [nM]
TACE prodomain (TPD), wild type, Asp23-Arg214 (domain or fragment, human, UniProt P78536 23-214, looked up, prodomain of human ADAM17/TACE, residues Asp23-Arg214; The methods say Asp24-Arg214, but the DNA fits Asp23; The WT runs as a disulfide-linked dimer without reducing agent; also called WT TPD; TPD WT; source: E. coli BL21 (DE3), pET28, soluble fraction, purified (Ni column, HiTrap Q, Superdex 75)) DPGFGPHQRLEKLDSLLSDYDILSLSNIQQHSVRKRDLQTSTHVETLLTFSALKRHFKLYLTSSTERFSQNFKVVVVDGKNESEYTVKWQDFFTGHVVGEPDSRVLAHIRDDDVIIRINTDGAEYNIEPLWRFVNDTKDKRMLVYKSEDIKNVSRLQSPKVCGYLKVDNEELLPKGLVDREPPEELVHRVKR | 145 | 2 | –
TACE prodomain (TPD) C184A (domain or fragment, human, UniProt P78536 23-214, looked up) DPGFGPHQRLEKLDSLLSDYDILSLSNIQQHSVRKRDLQTSTHVETLLTFSALKRHFKLYLTSSTERFSQNFKVVVVDGKNESEYTVKWQDFFTGHVVGEPDSRVLAHIRDDDVIIRINTDGAEYNIEPLWRFVNDTKDKRMLVYKSEDIKNVSRLQSPKVAGYLKVDNEELLPKGLVDREPPEELVHRVKR | – | – | 33
